This test deals with AeCRK^G359E-mCherry (Aeschynomene evenia). The experiment in a line: co-IP.

AeRLCK2-YFP (natural protein) gave a fold enrichment compared to the negative control MtLYK3-CFP of 2.9 fold.
As for AeCRK^G359E-mCherry (receptor), the figure is 7.37 fold.

These data come from publication doi:10.1101/2024.07.10.602847.
